Assay [1] has as its target T1, human Protein S (human, UniProt P07225 42-676).
T1 construct: Called 'full length Protein S' / 'human full-length Protein S'; It was coated on plates (ELISA), Eu-labeled (LANCE) or immobilized on a chip (Biacore); also called PS; full length Protein S
T1 sequence: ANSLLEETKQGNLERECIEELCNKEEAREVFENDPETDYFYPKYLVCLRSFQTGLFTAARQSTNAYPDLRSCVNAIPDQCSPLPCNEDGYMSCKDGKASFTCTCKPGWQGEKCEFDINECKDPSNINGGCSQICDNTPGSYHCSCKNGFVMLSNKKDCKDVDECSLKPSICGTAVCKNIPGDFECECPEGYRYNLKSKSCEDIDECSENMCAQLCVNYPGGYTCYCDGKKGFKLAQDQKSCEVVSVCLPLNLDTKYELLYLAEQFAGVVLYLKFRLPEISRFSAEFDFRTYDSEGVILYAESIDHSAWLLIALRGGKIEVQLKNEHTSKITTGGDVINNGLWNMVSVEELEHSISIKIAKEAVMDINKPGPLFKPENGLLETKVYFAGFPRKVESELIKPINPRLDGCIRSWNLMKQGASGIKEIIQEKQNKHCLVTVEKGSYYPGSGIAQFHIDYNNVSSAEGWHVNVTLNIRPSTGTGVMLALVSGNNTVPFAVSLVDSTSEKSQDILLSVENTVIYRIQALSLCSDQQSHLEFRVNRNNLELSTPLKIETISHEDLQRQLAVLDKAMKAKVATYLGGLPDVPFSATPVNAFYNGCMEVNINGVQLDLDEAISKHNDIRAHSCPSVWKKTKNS
Put plainly: competition ELISA; Protein S coated; competitor biotinylated tracer JBS0684. As to the method: The competition (IC50) ELISA was performed using biotinylated tracer peptide JBS0684 to compete for Protein S-binding with candidate peptides. Peptides that compete with the tracer bind the same region of Protein S as the tracer (and each other). Ninety-six well PolySorp plates (Nunc) were coated with 3 μg/mL Protein S in coating buffer (15 mM Na₂CO₃, 35 mM NaHCO₃, pH 9.6) over night. […] Plates were then washed three times with HNaT. JBS0684 was applied at a concentration corresponding to the EC90 value determined in the binding ELISA. A competitor stock solution of peptide (10 mM) was diluted 1/33.3 in HNaT without HSA, and a serial 1/3 dilution was prepared with HNaT with 3% DMSO. The dilution was further diluted with the biotinylated tracer peptide in a ratio of 1:6 (20 μl competitor dilution and 100 μl tracer peptide). The mixture of competitor and tracer peptide was applied to the Protein S-coated microtiter plate and incubated for 1.5 hours. The plates were washed three times with HNaT. Peptide-Protein S binding was detected by applying HRP-conjugated streptavidin to the microtiter plate, incubating the mixture for one hour, washing the plate three times with HNaT, applying TMB (3,3′5,5′-Tetramethylbenzidin), and detecting the subsequent chromogenic conversion of TMB by HRP. IC50 measurements of peptides are provided herein (see, e.g., Table 3).

Assay [2] deals with T1, human Protein S. Put plainly: LANCE TR-FRET competition; Eu-labeled Protein S; competitor tracer JBS0684. As to the method: Peptides also were characterized in a competition, homogenous europium-based TR-FRET assay (LANCE IC50 assay) using JBS0684 as a tracer (i.e., competitor for Protein S binding). The following reagents were mixed together in a Perkin-Elmer ProxiPlate MTP well (indicated concentration is the final concentration): Eu-labeled Protein S (10 nM), Ulight™-labeled Streptavidin (100 nM), tracer (JBS0684 (300 nM)), and peptide (titrated in three-fold dilution steps). The final volume was 50 μl/well. The reaction mix was incubated for 1 hour at room temperature, then the fluorescence emission at 665 nm was recorded on a multi-mode reader (SpectraMax® M5, Molecular Devices) using the following instrument settings: Ex 340 nm, Em 665 nm, delay 50 μsec, integration 100 μsec, reads 100. Binding of tracer peptides to soluble europium-labeled Protein S was detected by Streptavidin labeled with an acceptor fluorophor (ULight™). Inhibition of tracer-binding to Protein S by a non-biotinylated peptide results in a decrease of TR-FRET between the Eu-labeled Protein S and ULight™-labeled Streptavidin. IC50 values were obtained from peptide titration curves at constant tracer concentration using non-linear regression of the fluorescence emission signals at 665 nm.
Several peptides having multiple substitutions in the JBS2572 amino acid sequence were synthesized and evaluated using LANCE IC50 and CAT assays described above. For the assays, pooled normal plasma was supplemented with 3 nM APC and triggered with 6 pM TF, and 15 μM phospholipids (DOPC/POPS 80/20). Stock APC was diluted with TF-PL-MIX to 24 nM (plasma concentration: 3 nM).
On the technique in general: In TR-FRET formats the signal depends on donor and acceptor labels being close together.

Assay [3] concerns the target T1, human Protein S. Put plainly: LANCE TR-FRET; peptide added to preformed C4BP/Protein S complex; competitor C4BP. As for the experimental part:
To investigate the effect of the peptides described herein on PS/C4BP complexes, a LANCE IC50 assay was established using methods similar to those described above. JBS2572 or JBS3216 was added to a preformed C4BP/PS complex. Changes in the complex concentration were followed by recording the TR-FRET signal. For both peptides, a time- and concentration-dependent dissociation of the C4BP/PS complex was observed. […] The time-dependency of the complex reduction was similar for both peptides. After two hours of incubation in the presence of 100 nM JBS2572 or JBS3216, the C4BP/PS complex was reduced to 60% and 50%, respectively. In addition, binding of biotinylated JBS2572 to Protein S was inhibited by C4BP in the LANCE IC50 assay. Pull-down experiments where JBS2697 was coupled to streptavidin sepharose and incubated for one hour at room temperature with (a) Protein S (1.6 pmol) (b) C4BP (8.5 pmol) and (c) Protein S (1.6 pmol)+C4BP (8.5 pmol) supported the results from the modified LANCE IC50 assay. JBS2697 interacted with free Protein S only from experiment (a) with Protein S alone and from experiment (c) with the C4BP-Protein S mixture.

The target in assay [4] is T1, human Protein S. Put plainly: cell-based or functional assay.
Assay [5] has as its target T1, human Protein S. Put plainly: cell-based or functional assay. This is another data set of the same source.

As a reminder, the IC50 is the concentration needed to halve the response being measured. A low value points to greater potency.

Turning to Ac-TGLVSAGWYDYNFDHYREFT-NH2 (also called parent peptide JBS2572) [JBS2572], the IC50 in the assay with human Protein S [1] came to 2.5 nM; with human Protein S [2] it was 9.7 nM; with human Protein S [3], 2 nM. Also, in the assay with human Protein S [4], the “CAT EC50” value amounted to 14 nM. In the assay with human Protein S [5], the “fold increase of activity in the CAT-assay compared to JBS2512” value turned out to be 1.6 fold.

Values taken from patent publication US20150246947A1 (BAXALTA, published 2015).
